According to article PMC5920536:

What was measured:
[1] = target: T1, full-length human TRPML1 (transient receptor potential mucolipin 1) (human), Q9GZU1; assay: cryo-EM structure; details: remark: other sources report otherwise
T1 chain: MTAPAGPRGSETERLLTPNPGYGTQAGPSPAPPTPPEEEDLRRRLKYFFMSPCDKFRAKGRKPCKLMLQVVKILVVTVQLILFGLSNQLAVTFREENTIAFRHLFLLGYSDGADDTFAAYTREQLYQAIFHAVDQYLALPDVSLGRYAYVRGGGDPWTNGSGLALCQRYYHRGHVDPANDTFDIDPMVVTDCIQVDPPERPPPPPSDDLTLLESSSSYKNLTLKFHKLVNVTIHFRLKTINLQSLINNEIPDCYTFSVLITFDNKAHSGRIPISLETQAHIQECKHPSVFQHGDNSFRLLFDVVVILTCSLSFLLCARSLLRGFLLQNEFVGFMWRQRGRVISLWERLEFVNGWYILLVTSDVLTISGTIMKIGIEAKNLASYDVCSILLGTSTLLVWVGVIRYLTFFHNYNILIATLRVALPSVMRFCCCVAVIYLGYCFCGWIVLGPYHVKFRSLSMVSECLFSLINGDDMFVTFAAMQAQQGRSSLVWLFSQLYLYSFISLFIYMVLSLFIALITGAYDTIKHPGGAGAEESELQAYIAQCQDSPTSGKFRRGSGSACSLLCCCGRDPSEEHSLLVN

[2] = target: T1, full-length human TRPML1 (transient …); assay: cryo-EM structure; details: remark: other sources report otherwise

B1: full-length human TRPML1 (transient receptor potential mucolipin 1), Q9GZU1 1-580 (natural protein)
chain: MTAPAGPRGSETERLLTPNPGYGTQAGPSPAPPTPPEEEDLRRRLKYFFMSPCDKFRAKGRKPCKLMLQVVKILVVTVQLILFGLSNQLAVTFREENTIAFRHLFLLGYSDGADDTFAAYTREQLYQAIFHAVDQYLALPDVSLGRYAYVRGGGDPWTNGSGLALCQRYYHRGHVDPANDTFDIDPMVVTDCIQVDPPERPPPPPSDDLTLLESSSSYKNLTLKFHKLVNVTIHFRLKTINLQSLINNEIPDCYTFSVLITFDNKAHSGRIPISLETQAHIQECKHPSVFQHGDNSFRLLFDVVVILTCSLSFLLCARSLLRGFLLQNEFVGFMWRQRGRVISLWERLEFVNGWYILLVTSDVLTISGTIMKIGIEAKNLASYDVCSILLGTSTLLVWVGVIRYLTFFHNYNILIATLRVALPSVMRFCCCVAVIYLGYCFCGWIVLGPYHVKFRSLSMVSECLFSLINGDDMFVTFAAMQAQQGRSSLVWLFSQLYLYSFISLFIYMVLSLFIALITGAYDTIKHPGGAGAEESELQAYIAQCQDSPTSGKFRRGSGSACSLLCCCGRDPSEEHSLLVN
stoichiometry N [1]: 4
stoichiometry N [2]: 4
